In patent publication US20200173960A1:

Columns and labels:
[1] = molecular target: bevacizumab; experiment: Bevacizumab PK ELISA (anti-idiotype capture) of bevacizumab 0.5 ug/mL pre-bound with ADA; bevacizumab:ADA 1:2
[2] = molecular target: bevacizumab; experiment: Bevacizumab PK ELISA (anti-idiotype capture) of bevacizumab 0.5 ug/mL pre-bound with ADA; bevacizumab:ADA 10:1
[3] = molecular target: bevacizumab; experiment: Bevacizumab PK ELISA (anti-idiotype capture) of bevacizumab 50 ug/mL pre-bound with ADA; bevacizumab:ADA 1:1
[4] = molecular target: bevacizumab; experiment: method not stated; affinity listed for the purchased ADA
[5] = molecular target: bevacizumab; experiment: Bevacizumab PK ELISA (anti-idiotype capture) of bevacizumab 50 ug/mL pre-bound with ADA; bevacizumab:ADA 100:1
[6] = molecular target: bevacizumab; experiment: Bevacizumab PK ELISA (anti-idiotype capture) of bevacizumab 0.5 ug/mL pre-bound with ADA; bevacizumab:ADA 1:100
[7] = molecular target: bevacizumab; experiment: Bevacizumab PK ELISA (anti-idiotype capture) of bevacizumab 0.5 ug/mL pre-bound with ADA; bevacizumab:ADA 1:1
[8] = molecular target: bevacizumab; experiment: Bevacizumab PK ELISA (anti-idiotype capture) of bevacizumab 0.5 ug/mL pre-bound with ADA; bevacizumab:ADA 1:10
[9] = molecular target: bevacizumab; experiment: Bevacizumab PK ELISA (anti-idiotype capture) of bevacizumab 0.5 ug/mL pre-bound with ADA; bevacizumab:ADA 5:1
[10] = molecular target: bevacizumab; experiment: Bevacizumab PK ELISA (anti-idiotype capture) of bevacizumab 0.5 ug/mL pre-bound with ADA; bevacizumab:ADA 1:50
[11] = molecular target: bevacizumab; experiment: Bevacizumab PK ELISA (anti-idiotype capture) of bevacizumab 50 ug/mL pre-bound with ADA; bevacizumab:ADA 5:1
[12] = molecular target: bevacizumab; experiment: Bevacizumab PK ELISA (anti-idiotype capture) of bevacizumab 50 ug/mL pre-bound with ADA; bevacizumab:ADA 10:1
[13] = molecular target: bevacizumab; experiment: cell-based or functional assay
[14] = molecular target: bevacizumab; experiment: Bevacizumab PK ELISA (anti-idiotype capture) of bevacizumab 0.5 ug/mL pre-bound with ADA; bevacizumab:ADA 1:5

Accuracy (%) ELISA [1]: 55.8%
Accuracy (%) ELISA [2]: 104%
Accuracy (%) ELISA [3]: 76.8%
Kd [4]: 0.4 nM
Accuracy (%) ELISA [5]: 95.6%
Accuracy (%) ELISA [6]: 35.2%
Accuracy (%) ELISA [7]: 73.5%
Accuracy (%) ELISA [8]: 38.9%
Accuracy (%) ELISA [9]: 86.6%
Accuracy (%) ELISA [10]: 37.2%
Accuracy (%) ELISA [11]: 76.2%
Accuracy (%) ELISA [12]: 84.1%
Accuracy (%) nSMOL; bevacizumab 0.5 ug/mL; bevacizumab:ADA 1:1 [13]: 95.5%
Accuracy (%) nSMOL; bevacizumab 0.5 ug/mL; bevacizumab:ADA 1:2 [13]: 82.1%
Accuracy (%) nSMOL; bevacizumab 0.5 ug/mL; bevacizumab:ADA 1:5 [13]: 54.8%
Accuracy (%) nSMOL; bevacizumab 0.5 ug/mL; bevacizumab:ADA 1:10 [13]: 22.8%
Accuracy (%) nSMOL; bevacizumab 0.5 ug/mL; bevacizumab:ADA 1:50 [13]: 22.9%
Accuracy (%) nSMOL; bevacizumab 0.5 ug/mL; bevacizumab:ADA 1:100 [13]: 23.1%
Accuracy (%) nSMOL; bevacizumab 0.5 ug/mL; bevacizumab:ADA 5:1 [13]: 105%
Accuracy (%) nSMOL; bevacizumab 0.5 ug/mL; bevacizumab:ADA 10:1 [13]: 107%
Accuracy (%) nSMOL; bevacizumab 50 ug/mL; bevacizumab:ADA 1:1 [13]: 75.7%
Accuracy (%) nSMOL; bevacizumab 50 ug/mL; bevacizumab:ADA 5:1 [13]: 90.3%
Accuracy (%) nSMOL; bevacizumab 50 ug/mL; bevacizumab:ADA 10:1 [13]: 95.8%
Accuracy (%) nSMOL; bevacizumab 50 ug/mL; bevacizumab:ADA 100:1 [13]: 100%
Accuracy (%) nSMOL; bevacizumab first immobilized on Protein A; bevacizumab:ADA 1:1 [13]: 58.9%
Accuracy (%) nSMOL; bevacizumab first immobilized on Protein A; bevacizumab:ADA 5:1 [13]: 90%
Accuracy (%) nSMOL; bevacizumab first immobilized on Protein A; bevacizumab:ADA 10:1 [13]: 106%
Accuracy (%) nSMOL; bevacizumab first immobilized on Protein A; bevacizumab:ADA 100:1 [13]: 105%
inhibitory effect on quantification values (nSMOL), ratio 1:1 [13]: 50%
Accuracy (%) ELISA [14]: 39.6%
Substance: HCA185 (antibody)
